Experimental data taken from article PMC10689503, “CaMKK2 and CHK1 phosphorylate human STN1 in response to replication stress to protect stalled forks from aberrant resection”.

Key:
Settings in all cases: protein: recombinant;recombinant;recombinant; copies: 1;1;1; label: 5'-Cy3 on Oligo 2; 25 bp duplex; 5' overhang 35 nt on strand 1
CTC1;STN1 WT;TEN1 = CTC1;STN1 WT;TEN1 (human;human;human, UniProt Q2NKJ3;Q9H668;Q86WV5 1-1217;1-368;1-123, ||); assay: EMSA; EMSA: 60 nM DNA, 35 mM Tris-HCl pH 7.5, 1 mM DTT, 100 ng/uL BSA, 50 mM KCl, 37 C, 5 min; 0.8% agarose, 1x TBE, 4 C
CTC1;STN1 S96D;TEN1 = CTC1;STN1 S96D;TEN1 (human;human;human, UniProt Q2NKJ3;Q9H668;Q86WV5 1-1217;1-368;1-123, |S96D|); assay: EMSA; affinity comparable to WT-CST; EMSA: 60 nM DNA, 35 mM Tris-HCl pH 7.5, 1 mM DTT, 100 ng/uL BSA, 50 mM KCl, 37 C, 5 min; 0.8% agarose, 1x TBE, 4 C
CTC1;STN1 S96A;TEN1 = CTC1;STN1 S96A;TEN1 (human;human;human, UniProt Q2NKJ3;Q9H668;Q86WV5 1-1217;1-368;1-123, |S96A|); assay: as above

Measured: binding result

Sequence of CTC1;STN1 WT;TEN1 (Q2NKJ3 whole entry, chain 1 of 3): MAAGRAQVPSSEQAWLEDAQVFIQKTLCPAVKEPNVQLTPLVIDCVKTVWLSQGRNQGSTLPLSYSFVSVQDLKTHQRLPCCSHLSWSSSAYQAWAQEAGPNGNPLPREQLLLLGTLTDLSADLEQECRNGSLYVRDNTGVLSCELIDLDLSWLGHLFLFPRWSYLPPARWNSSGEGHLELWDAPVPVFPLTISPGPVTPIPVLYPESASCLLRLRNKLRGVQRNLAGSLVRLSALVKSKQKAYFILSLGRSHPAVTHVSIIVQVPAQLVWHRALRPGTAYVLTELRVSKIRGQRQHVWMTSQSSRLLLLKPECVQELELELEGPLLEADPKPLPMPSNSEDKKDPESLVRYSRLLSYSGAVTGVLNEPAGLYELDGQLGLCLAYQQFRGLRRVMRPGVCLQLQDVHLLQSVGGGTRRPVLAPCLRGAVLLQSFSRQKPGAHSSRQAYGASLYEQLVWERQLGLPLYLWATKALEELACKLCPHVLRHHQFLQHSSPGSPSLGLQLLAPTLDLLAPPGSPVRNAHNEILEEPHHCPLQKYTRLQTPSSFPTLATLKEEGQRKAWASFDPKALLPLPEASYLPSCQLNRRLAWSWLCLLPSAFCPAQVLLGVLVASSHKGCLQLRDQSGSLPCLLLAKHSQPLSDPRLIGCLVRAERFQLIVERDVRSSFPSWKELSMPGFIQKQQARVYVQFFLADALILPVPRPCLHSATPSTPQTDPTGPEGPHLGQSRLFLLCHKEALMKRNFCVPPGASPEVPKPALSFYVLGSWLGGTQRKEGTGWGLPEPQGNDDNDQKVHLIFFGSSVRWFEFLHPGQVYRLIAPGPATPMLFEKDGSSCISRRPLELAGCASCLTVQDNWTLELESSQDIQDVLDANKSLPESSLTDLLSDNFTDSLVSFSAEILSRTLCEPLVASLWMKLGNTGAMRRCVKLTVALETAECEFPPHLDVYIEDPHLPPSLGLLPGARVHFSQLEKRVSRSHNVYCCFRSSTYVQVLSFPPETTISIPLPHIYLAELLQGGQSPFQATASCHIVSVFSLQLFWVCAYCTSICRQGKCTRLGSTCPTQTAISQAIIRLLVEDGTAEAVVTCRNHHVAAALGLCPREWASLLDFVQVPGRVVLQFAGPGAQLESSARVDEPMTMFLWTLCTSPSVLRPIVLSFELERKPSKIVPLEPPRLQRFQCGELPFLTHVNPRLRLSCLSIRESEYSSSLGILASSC
Sequence of CTC1;STN1 WT;TEN1 (Q9H668 whole entry, chain 2 of 3): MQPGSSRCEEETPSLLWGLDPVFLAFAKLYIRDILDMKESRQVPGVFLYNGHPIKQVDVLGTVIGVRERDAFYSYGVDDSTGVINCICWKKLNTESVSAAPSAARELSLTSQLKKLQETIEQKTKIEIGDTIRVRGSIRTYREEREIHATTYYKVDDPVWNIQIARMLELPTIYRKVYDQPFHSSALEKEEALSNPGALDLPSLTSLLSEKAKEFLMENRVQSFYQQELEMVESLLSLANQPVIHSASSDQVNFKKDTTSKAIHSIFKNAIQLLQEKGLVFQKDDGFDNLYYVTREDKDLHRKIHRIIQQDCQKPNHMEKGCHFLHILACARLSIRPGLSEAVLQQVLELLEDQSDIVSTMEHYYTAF
Sequence of CTC1;STN1 WT;TEN1 (Q86WV5 whole entry, chain 3 of 3): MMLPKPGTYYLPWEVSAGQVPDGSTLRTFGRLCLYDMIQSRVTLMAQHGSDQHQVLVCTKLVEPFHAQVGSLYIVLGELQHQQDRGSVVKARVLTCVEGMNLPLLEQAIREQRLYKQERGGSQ
Sequence of CTC1;STN1 S96D;TEN1 (Q2NKJ3 whole entry, chain 1 of 3): as the sequence (Q2NKJ3 whole entry, chain 1 of 3) above
Sequence of CTC1;STN1 S96D;TEN1 (Q9H668 whole entry S96D, chain 2 of 3): as the sequence (Q9H668 whole entry, chain 2 of 3) above, with S96D counted along it
Sequence of CTC1;STN1 S96D;TEN1 (Q86WV5 whole entry, chain 3 of 3): as the sequence (Q86WV5 whole entry, chain 3 of 3) above
Sequence of CTC1;STN1 S96A;TEN1 (Q2NKJ3 whole entry, chain 1 of 3): as the sequence (Q2NKJ3 whole entry, chain 1 of 3) above
Sequence of CTC1;STN1 S96A;TEN1 (Q9H668 whole entry S96A, chain 2 of 3): as the sequence (Q9H668 whole entry, chain 2 of 3) above, with S96A counted along it
Sequence of CTC1;STN1 S96A;TEN1 (Q86WV5 whole entry, chain 3 of 3): as the sequence (Q86WV5 whole entry, chain 3 of 3) above

B1: Cy3-labeled 5' overhang DNA (Oligo 1 + Oligo 2) (mixed)
DNA 1: ACGCTGCCGAATTCTACCAGTGCCTTGCTAGGACATCTTTGCCCACCTGCAGGTTCACCC
DNA 2: GGGTGAACCTGCAGGTGGGCAAAGA
modifications: Oligo 1: phosphorothioate bonds at both ends (after nt 1-5 and as printed around the last 4 nt)
binds: all assays above
